In patent US20150147316A1 (Seagen, published 2015):
Residue numbers refer to the chain shown, from its start.

Columns and labels:
human CD33 [1] = target: T1, human CD33 (human, UniProt P20138 18-364); assay: cell-based or functional assay
human CD33 [2] = target: T1, human CD33; assay: cell-based or functional assay; remark: listed apart in the source
human CD33 [3] = target: T1, human CD33; assay: flow cytometry on HEL 92.1.7 AML cells

T1 sequence (P20138 18-364): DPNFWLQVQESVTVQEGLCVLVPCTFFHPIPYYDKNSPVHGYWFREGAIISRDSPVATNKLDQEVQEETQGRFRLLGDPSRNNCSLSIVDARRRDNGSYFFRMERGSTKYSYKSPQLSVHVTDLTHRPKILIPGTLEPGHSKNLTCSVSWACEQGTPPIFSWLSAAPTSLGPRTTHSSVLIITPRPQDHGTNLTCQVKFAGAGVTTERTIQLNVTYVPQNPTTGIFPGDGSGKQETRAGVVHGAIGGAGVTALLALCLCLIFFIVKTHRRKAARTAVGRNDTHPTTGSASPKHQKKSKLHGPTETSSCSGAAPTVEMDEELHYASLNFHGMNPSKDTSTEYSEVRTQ

B1: m2H12-SGD-1269 (other)
VH: QVQLQQSGPELVRPGTFVKISCKASGYTFTNYDINWVNQRPGQGLEWIGWIYPGDGSTKYNEKFKAKATLTADKSSSTAYLQLNNLTSENSAVYFCASGYEDAMDYWGQGTSVTVSS
VL: DIKMTQSPSSMYASLGERVIINCKASQDINSYLSWFQQKPGKSPKTLIYRANRLVDGVPSRFSGSGSGQDYSLTISSLEYEDMGIYYCLQYDEFPLTFGAGTKLELK
modifications: conjugated to drug-linker SGD-1269 (mcMMAF); sites and load not stated for the murine antibody
Human CD33 [1]
  IC50, cytotoxicity on HL-60 cells (96 h, CelltiterGlo): 1.3 ng/mL

B2: h2H12EC-SGD-1910 (other)
VH: QVQLVQSGAEVKKPGASVKVSCKASGYTFTNYDINWVRQAPGQGLEWIGWIYPGDGSTKYNEKFKAKATLTADTSTSTAYMELRSLRSDDTAVYYCASGYEDAMDYWGQGTTVTVSS
VL: DIQMTQSPSSLSASVGDRVTINCKASQDINSYLSWFQQKPGKAPKTLIYRANRLVDGVPSRFSGSGSGQDYTLTISSLQPEDFATYYCLQYDEFPLTFGGGTKVEIK
modifications: drug-linker SGD-1910 (pyrrolobenzodiazepine dimer) on the cysteine introduced at position 239 of the IgG1 chain, average about 2 drugs per antibody
Human CD33 [2]
  IC50 (ng/mL), cytotoxicity on HEL 92.1.7 cells: 7 ng/mL
  IC50 (ng/mL), cytotoxicity on HL-60 cells: 1 ng/mL
  IC50 (ng/mL), cytotoxicity on KG-1 cells: 3 ng/mL
  IC50 (ng/mL), cytotoxicity on MV4-11 cells: 0.1 ng/mL
  IC50 (ng/mL), cytotoxicity on TF1-α cells: 49 ng/mL
  IC50 (ng/mL), cytotoxicity on TF-1 cells: 61 ng/mL
  IC50 (ng/mL), cytotoxicity on U937 cells: 22 ng/mL
Human CD33 [1]
  IC50, cytotoxicity on HEL 92.1.7 cells (96 h, CelltiterGlo): ~12.9 ng/mL
  IC50, cytotoxicity on HL-60 cells (96 h, CelltiterGlo): ~1.6 ng/mL
  mean IC50 over 7 of 7 AML cell lines, cytotoxicity: 20.4 ng/mL

B3: h2H12-SGD-1269 (other)
VH: B2 VH
VL: B2 VL
modifications: drug-linker SGD-1269 (mcMMAF) on thiol groups of interchain disulfide cysteines, average about 4 drugs per antibody
Human CD33 [2]
  IC50 (ng/mL), cytotoxicity on HEL 92.1.7 cells: > 1000 ng/mL
  IC50 (ng/mL), cytotoxicity on HL-60 cells: 2 ng/mL
  IC50 (ng/mL), cytotoxicity on KG-1 cells: 270 ng/mL
  IC50 (ng/mL), cytotoxicity on MV4-11 cells: 0.1 ng/mL
  IC50 (ng/mL), cytotoxicity on TF1-α cells: > 1000 ng/mL
  IC50 (ng/mL), cytotoxicity on TF-1 cells: > 1000 ng/mL
  IC50 (ng/mL), cytotoxicity on U937 cells: 19 ng/mL
Human CD33 [1]
  IC50, cytotoxicity on HL-60 cells (96 h, CelltiterGlo): 5.3 ng/mL
  mean IC50 for responsive AML cell lines (4 of 7), cytotoxicity: 72.8 ng/mL

B4: HAcL (antibody, V domains shown)
VH: B2 VH with I48M, K67R, A68V, L70M, A72T, S98R
VL: B1 VL
notes: Hybrid of humanized heavy chain HA and the chimeric light chain (murine VL, human constant region)
Human CD33 [3]
  binding result: no binding (tested: 0.03 nM to 600 nM (methods))

B5: HGcL (antibody, V domains shown)
VH: B2 VH with I48M, A72T, S98R
VL: B1 VL
notes: Hybrid of humanized heavy chain HG and the chimeric light chain (murine VL, human constant region)
Human CD33 [3]
  binding result: no binding (tested: 0.03 nM to 600 nM (methods))

B6: HHcL (antibody, V domains shown)
VH: B2 VH with I48M, K67R, A68V, L70M, A72T, R84S, R87T, S98R
VL: B1 VL
notes: Hybrid of humanized heavy chain HH and the chimeric light chain (murine VL, human constant region)
Human CD33 [3]
  binding result: no binding (tested: 0.03 nM to 600 nM (methods))

B7: HDcL (antibody, V domains shown)
VH: B2 VH with I48M, K67R, A68V, L70M, A72T, T74K, S98R
VL: B1 VL
notes: Hybrid of humanized heavy chain HD and the chimeric light chain (murine VL, human constant region)
Human CD33 [3]
  binding result: no binding (tested: 0.03 nM to 600 nM (methods))

B8: HEcL (antibody, V domains shown)
VH: B2 VH with K67R, A68V, L70M, A72T, S98R
VL: B1 VL
notes: Hybrid of humanized heavy chain HE and the chimeric light chain (murine VL, human constant region)
Human CD33 [3]
  binding result: no binding (tested: 0.03 nM to 600 nM (methods))

B9: HBcL (antibody, V domains shown)
VH: B2 VH with I48M, K67R, A68V, L70M, S98R
VL: B1 VL
notes: Hybrid of humanized heavy chain HB and the chimeric light chain (murine VL, human constant region)
Human CD33 [3]
  binding result: no binding (tested: 0.03 nM to 600 nM (methods))

B10: HFcL (antibody, V domains shown)
VH: B2 VH with R38N, A40R, I48M, K67R, A68V, L70M, A72T, S98R
VL: B1 VL
notes: Hybrid of humanized heavy chain HF and the chimeric light chain (murine VL, human constant region)
Human CD33 [3]
  binding result: no binding (tested: 0.03 nM to 600 nM (methods))
